Data reported in publication PMC12612047 (Nature Communications, 2025).

System: CNA/B
Experiment: Affinity of CLMB T44E for CNA/B
Type: binding
Conditions: glutamate for threonine at position 44; data not shown

B1: CLMB^T44E (protein)
chain: MGLKMSCLKGFQMCVSSSSSSHDEAPVLNDKHLDVPDIIITPPEPTGMMLPRDLGSTVWLDETGSCPDDGEIDPEA
B1 was tested, and the “affinity for CNA/B relative to CLMB” value was “failed to show increased affinity”.
